Results from patent US20240174741A1 (IMMUNOME, published 2024).

Tests used:
Assay in all cases: CDI HuProt native protein microarray
[1] = biological target: T1, IL-36Ra (human, UniProt Q9UBH0 1-155, limits assumed)
T1 sequence (looked up): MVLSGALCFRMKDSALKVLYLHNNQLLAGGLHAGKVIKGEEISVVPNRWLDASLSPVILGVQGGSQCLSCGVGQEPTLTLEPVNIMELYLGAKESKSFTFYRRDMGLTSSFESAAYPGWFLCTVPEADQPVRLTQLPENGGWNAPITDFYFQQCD
Protocol: (§1) To confirm specificity to IL-38, several lead candidate antibodies (CD1-M3, CD1-M8, NZB-M8) were analyzed in a High-Spec Cross-reactivity Assay using native HuProt arrays (CDI Laboratories). […] of antibody was incubated overnight in a cold room, washed, and probed with anti-human secondary antibodies. Fluorescence intensity (F635) as an indicator of binding was measured for each spot. CDI software quantified the specificity of the antibody to each spot based on a Z-score. Z-score is defined as [F635−(Average F635 on array)]/(Standard deviation of F635 on array). S-score is defined as the difference between the Z-score of a given protein and the Z-score of the next highest protein.

[2] = biological target: T2, IL-36a (human, UniProt Q9UHA7 1-158, limits assumed)
T2 sequence (looked up): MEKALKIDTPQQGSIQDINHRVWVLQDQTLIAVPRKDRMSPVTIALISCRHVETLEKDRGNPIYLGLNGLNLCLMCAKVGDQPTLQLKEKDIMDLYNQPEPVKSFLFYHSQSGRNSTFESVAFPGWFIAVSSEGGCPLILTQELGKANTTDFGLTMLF
Protocol: as §1

[3] = biological target: IL-1β (human, UniProt P01584 1-269, limits assumed)
Protocol: as §1

Measured: binding result

B1: CD1-M3 (antibody, V domains shown)
VH: EVQLQQSGPELVKPGASVKIPCKASGYTFTDYNMDWVKQSHGKSLEWIGDINPNNGGTIYNQKFKGKATLTVDKSSSTAYMELRSLTSEDTAVYYCSRPYYGYFAYWGQGTLVTVSA
VL: DVVMTQSPLSLPVSLGDQASISCRSSQSLVHSHENTFLHWYLQKPGQSPKLLIYRVSNRFSGVPDRFSGSGSGTDFTLKISRVEAEDLGVYFCSQSTHVPLTFGAGTKLELK
notes: Mouse monoclonal from a hybridoma of a CD-1 mouse immunized with full length recombinant IL-38
no binding: all assays above
